# Laboratory results as given in IntAct's records for PubMed 11359767.
# B1: E3 ubiquitin-protein ligase NEDD4 (Homo sapiens), P46934 (parent)
# chain: MAQSLRLHFAARRSNTYPLSETSGDDLDSHVHMCFKRPTRISTSNVVQMKLTPRQTALAPLIKENVQSQERSSVPSSENVNKKSSCLQISLQPTRYSGYLQSSNVLADSDDASFTCILKDGIYSSAVVDNELNAVNDGHLVSSPAICSGSLSNFSTSDNGSYSSNGSDFGSCASITSGGSYTNSVISDSSSYTFPPSDDTFLGGNLPSDSTSNRSVPNRNTTPCEIFSRSTSTDPFVQDDLEHGLEIMKLPVSRNTKIPLKRYSSLVIFPRSPSTTRPTSPTSLCTLLSKGSYQTSHQFIISPSEIAHNEDGTSAKGFLSTAVNGLRLSKTICTPGEVRDIRPLHRKGSLQKKIVLSNNTPRQTVCEKSSEGYSCVSVHFTQRKAATLDCETTNGDCKPEMSEIKLNSDSEYIKLMHRTSACLPSSQNVDCQININGELERPHSQMNKNHGILRRSISLGGAYPNISCLSSLKHNCSKGGPSQLLIKFASGNEGKVDNLSRDSNRDCTNELSNSCKTRDDFLGQVDVPLYPLPTENPRLERPYTFKDFVLHPRSHKSRVKGYLRLKMTYLPKTSGSEDDNAEQAEELEPGWVVLDQPDAACHLQQQQEPSPLPPGWEERQDILGRTYYVNHESRRTQWKRPTPQDNLTDAENGNIQLQAQRAFTTRRQISEETESVDNRESSENWEIIREDEATMYSNQAFPSPPPSSNLDVPTHLAEELNARLTIFGNSAVSQPASSSNHSSRRGSLQAYTFEEQPTLPVLLPTSSGLPPGWEEKQDERGRSYYVDHNSRTTTWTKPTVQATVETSQLTSSQSSAGPQSQASTSDSGQQVTQPSEIEQGFLPKGWEVRHAPNGRPFFIDHNTKTTTWEDPRLKIPAHLRGKTSLDTSNDLGPLPPGWEERTHTDGRIFYINHNIKRTQWEDPRLENVAITGPAVPYSRDYKRKYEFFRRKLKKQNDIPNKFEMKLRRATVLEDSYRRIMGVKRADFLKARLWIEFDGEKGLDYGGVAREWFFLISKEMFNPYYGLFEYSATDNYTLQINPNSGLCNEDHLSYFKFIGRVAGMAVYHGKLLDGFFIRPFYKMMLHKPITLHDMESVDSEYYNSLRWILENDPTELDLRFIIDEELFGQTHQHELKNGGSEIVVTNKNKKEYIYLVIQWRFVNRIQKQMAAFKEGFFELIPQDLIKIFDENELELLMCGLGDVDVNDWREHTKYKNGYSANHQVIQWFWKAVLMMDSEKRIRLLQFVTGTSRVPMNGFAELYGSNGPQSFTVEQWGTPEKLPRAHTCFNRLDLPPYESFEELWDKLQMAIENTQGFDGVD
# partner: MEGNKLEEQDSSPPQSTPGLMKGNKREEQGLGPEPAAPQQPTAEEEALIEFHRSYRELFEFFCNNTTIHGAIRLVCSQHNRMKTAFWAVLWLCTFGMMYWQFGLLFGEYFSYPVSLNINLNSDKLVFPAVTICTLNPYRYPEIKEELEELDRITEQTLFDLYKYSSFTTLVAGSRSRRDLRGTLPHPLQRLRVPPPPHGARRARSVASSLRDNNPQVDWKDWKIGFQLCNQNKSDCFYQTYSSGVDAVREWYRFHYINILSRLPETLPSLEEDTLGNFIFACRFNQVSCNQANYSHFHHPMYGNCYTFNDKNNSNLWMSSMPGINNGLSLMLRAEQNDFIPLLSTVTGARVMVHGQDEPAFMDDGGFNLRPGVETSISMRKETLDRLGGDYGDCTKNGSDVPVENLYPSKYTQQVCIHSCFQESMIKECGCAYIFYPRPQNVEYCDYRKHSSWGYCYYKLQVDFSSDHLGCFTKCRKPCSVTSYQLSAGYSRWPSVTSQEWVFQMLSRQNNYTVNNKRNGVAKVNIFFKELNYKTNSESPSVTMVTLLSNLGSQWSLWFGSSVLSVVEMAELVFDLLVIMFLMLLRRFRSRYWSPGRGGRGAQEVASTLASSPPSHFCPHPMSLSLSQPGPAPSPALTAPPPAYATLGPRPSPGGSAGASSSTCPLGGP
# Variants of: B1
# Settings: with scnna_human SCNN1A
row,Variant,effect of a mutation on the interaction
1,V786W;H788G,with no effect
2,I859W;H861G,disrupting interaction strength
3,I911W;H913G,with no effect
4,V629W;H631G;V786W;H788G;I859W;H861G;I911W;H913G,disrupting interaction strength
5,V629W;H631G,with no effect
6,V629W;H631G;V786W;H788G;I911W;H913G,with no effect
7,V629W;H631G;I859W;H861G;I911W;H913G,disrupting interaction strength
8,V629W;H631G;V786W;H788G;I859W;H861G,disrupting interaction strength
9,V786W;H788G;I859W;H861G;I911W;H913G,disrupting interaction strength
